{"source": "the DeepSol protein solubility set", "data": [{"experiment": "soluble on expression in E. coli; label from the status in PepcDB or PDB records", "values": [{"sequence": "MIHSNEPLPYAIEYAKSGRSTCKTCKKNIALDQLRMSMNRPSTFFDGNMDSWFHYNCFWNKMIRGRDDINISSIRGVDWLRWEDQEKLRQEIQHFKTASPPTLTPLFSTTTVILSTIKTEKSLSNRGKCGKCGQNFERGEIKAHNKGKANHFECFLQEFDKISGTVEDIPGWADYEANFKIKATGEYVEALAAKGGSTEPATPASASPTPPEAETPVLSAEGSPESSNKRPASAEIIEIDGEGNPDENDFAKKRRMKKEARLMEVQKKRMKKQSDLLWEYRQIFERMPYTDNISILRENEQDIPEGHDRTAQDVFHEKTKNDWIYRKHFRKMPGMFSYVETDYSEFVGTNNGHKKKITPGSKITPGSKTLLPKSVKEVVMSIFDVENMKSALKSFEIDVNKMPLGRLSHNQINLAFEVLNDISDLLVKLPIDASKILDFSNKFYTIIPHNFGMRVPEPIDSFHKIKEKNNMLNALLDIKFAYDQISGGDVPASTSLSIDPVDINYRKLKCIMEPLQQGCDDWNMIHQYLKNTHGATHDLKVELIDILKVNRDNESSKFKRHIGNRRLLWHGSGKMNFAGILGQGLRIAPPEAPVSGYMFGKGVYFADMFSKSFFYCRANAKEEAYLLLCDVALGNVQQLMASKNVSRQTLPAGFQSVQGVGRQCPREIGSYKNPDGYTVPLGLTYMQLQGKQNVDYHLLYNEFIVYDVDQIQLKYLVRVKMHHARHL", "soluble on expression in E. coli": "not soluble"}, {"sequence": "MSTPRIVVGVSGGVDSSVAAWKLAQQGEPIAGLFMQNWADDGSGDCRAEDDRRDAVAVCGVLGIPFHFRDFSGEYWSDVFEHFLAEYAAGRTPNPDVLCNREVKFKHFLDAAQALGAERIATGHYAQVAHRGGRWRLLRGADRGKDQSYFLHQLGQTQLAATLFPIGDLEKSTLRRIAQDAGLPTHAKKDSTGICFIGERDFREFLGRYLPARTGEIRDPQGQRIAEHPGVFYFTLGQREGLNIGGVRGRAAAPWYVVGKDVANNVLYVDQDRDSPLLQSRWLQSEQAHWVTGAPPARRFSCTAQTRYRQPDESCTVDVQDDGSVQVRFERPQRAVTPGQSLVLYDGEECLGGAVIAATDAPLERQLAGSSFSSEVVALEHHHHHH", "soluble on expression in E. coli": "not soluble"}, {"sequence": "MKSNKSKYKLVVDYVIDGINEGRLKKGAWIPSLNEFREMYGLSRDTVFSGIRELKSRGIIKSNPGVGYYIVSTRVPFKHNIFLLFNEFNEFKEDIYNSFMETVGNSATVDLYFHNYNRKVFETLVNNANHKYTTYIIMSGKFADIGPLLESLSGNVFLLDHYHSELKGKYSSVFQNFEKDTYEALVYGLSNLRKYKHIVMVQKDSKEPFERYDGLRAFCKEHGFTHECIGEIQGREIVKQEVFMVVNDRDLVNLLKQADRQQLVPGKDFGIISYNDTPLKEVLAGGITTLSTDFKLMGRTMASLINKKTIETIENPWNLNIRNSL", "soluble on expression in E. coli": "not soluble"}, {"sequence": "MAGQIRMSPEELKSKATRYGQGANQIEDILRQLQNLQNELRGEWEGRAFEGFDQQFNQLKPKVQNFAQLLQEINMQLNKTAEAVARHDEDLSRNFGLQ", "soluble on expression in E. coli": "not soluble"}, {"sequence": "MGSDKIHHHHHHMSKKTYYYHSESEDLVSSAQQDFQLPDDYQFFREGVAWQFWNGLVRSLACAFAWLYSRLFLLVKVKGKEKLRPFKKQGYFVYGNHTQMLGDPFNPMTIVNPYHYYALAAQANWGIPFLGKYVIPAAGLPVGKNIKQSIRLLKDVKYAYEEKQAAIVIYPEAHLWPYYTKIRPFPATSFNFPVSLKAPAFAMTTTYQPCRWRKRPKITVYIDGPFYPDEKLGKKAAQEKLHGEIAKSMQERAKLSTCEYCSYVKIDSKN", "soluble on expression in E. coli": "not soluble"}, {"sequence": "GPGSMLEPIFEEITCLFASRNPKHALQGLSDGLRNAATGVGLGLAGVVAGTYGGAKEGGLGGMAKGFGAGMAGFVGLTGYGAYAGVRQIVRGVGNTRSAVSEVSKGEAYWDSNAQAWVRVNLACDFERLPQTDEDLLGTARKAYEKAKKDGTLPTTLNDSAEGGGASASSATTGAGAASVPQGTDTGETKPAAAEPVNYYAFLGVESAATPSEIRKAYTRKALEMHPDKNPNDPNATIKFQELNKIYNVLSHEGTRATYDRYGTVDPMNVPEMTGNPMKELLGAAFLEALVGPLHFFLVFEGGVLFTAEMKRELHARRRLRVAKNLVSWLDNGASGFESAQLALRDAVSTALGPVFVSYVAEEYHLASRQQLHGSNWKREMDSWYSSWATSASSLWHWTTMGARTARRAFVDKNLGEEDILRVLAVANERDVRQIVLQACRLVLFDMSVTPAQRQQRAMRLEELSVMAMKEVAREVASRERIGASEATAAAAEKGTTTKTPADTNATAPPFS", "soluble on expression in E. coli": "soluble"}, {"sequence": "FLSDGKEIIAEKDEAIRETVKLLEEGHILAIKGIGGTHLACKVGEDDVVLELRKRLGRPTQPFAVMSKIEYTELFAEFDEDEKNALLSLRRPIVVLKKSQDYDKYFSKYVSNLDTIGVMFPYSGLHYLLFDKEIAYVMTSANLPGLPMVKDNDEILKKLNGIADYFLLHNRRIVNRCDDSVVKKVADRLVFLRRSRGFAPEPVKV", "soluble on expression in E. coli": "not soluble"}, {"sequence": "MASRVDETTVPSYYYYVDPETTYTYQQPNPLQDLISVYGLDDISRQVARTNLDGTKAVKLRKSYKNQIADLSGKFSTIPTRENGKGGQIAHILFQNNPDMMIQPPQQGQNMSEQQWREQLRNRDIALFQPPNFDWDLCSSVLSQFERSYPSEFANQNQGGAQAPFDIDDLAFDLDGTGKSQSGSNSGNNSKKRKNKSSGSSMATPTHSDSHEDMKRRRLE", "soluble on expression in E. coli": "soluble"}, {"sequence": "MAVCSLVAKITYAEERQQNNYPIILVNGFAGWGREEMLGVKYWGGVHDIQEDLKRNGYTVHTAAVGPVSSNWDRACELYAQINGGTVDYGAAHAEKHGHKRFGRTYSGFAPNWSETNKIHLVGHSMGGQTIRTLVQLLKEGSYEEKNYVKNHPNTKISPLFEGEKSYVHSVTTLATPHNGTTLADGSLLLPFVKDLLITAASFGGNDNLSLYDFKLDQWGLKKNTGESFFQYSNRILNSSIWKNTKDISQWDLSTDGAKELNNWVKTQLNVYYLSYSGHASQAAPITGLHLPHITMNKVLMGNAFFLGSYARYEENRPLIDTTWWQNDGVVNTSSMIAPSSNATVNNNESLQIGKWNHIETKANWDHLDMVGLSVSDTLGFSSIQEFYRAIAEKLSRLPK", "soluble on expression in E. coli": "not soluble"}, {"sequence": "MASIAVCPGSFDPVTYGHLDIIKRGAHIFEQVYVCVLNNSSKKPLFSVEERCELLREVTKDIPNITVETSQGLLIDYARRKNAKAILRGLRAVSDFEYEMQGTSVNRVLDESIETFFMMANNQYSFLSSSIVKEVARYDGSVSEFVPPEVELALQQKFRQGGSHHHHHH", "soluble on expression in E. coli": "soluble"}, {"sequence": "MSRNDLFKQPLDTINVGIDFIHEDMKKQGIPSHQVNWAPPANGDPELLKLLDQLKNPTLYEKIQQANEEAVTRIIQSKPILVGFDKAINVMPDMTETTILHAGPPITYENMCGPMKGAVQGALVFEGLAKDLADADRVARSGAITFSPCHEHDAVGSMAGVTSPNMYVHIIKNETYGNTAFTNLSEQLAKVLRFGANDQSVVDRLIWMRDVLGPLLHDAMTFCPEGIDLRLMLSQALHMGDECHNRNVAGSTLLVQALTPYMVQTDFSREQLKEVFEFLGSSDYFSGPTWMGAAKCALDAGHNVENSTIVTTMCRNGVEFGIRVSGIGGNHWFTGPAQRVIGPMFAGYTQEDAGLDMGDSAITETYGVGGFAMAAAPAIVPLVGGTVAEALNYSKEMLEITTKENPNVTIPVLDFMGIPTGIDVLKVLETGMLPVINTAIAHKEPGIGMIGAGLTNPPANVFNEALKALVATIN", "soluble on expression in E. coli": "soluble"}, {"sequence": "MGSDKIHHHHHHMNVVVQKYGGSSVATPERIKNVAQRIKKKVDEGYKVVVVVSAMGKTTDNLIKLAKEISPRPDSRELDMLLATGEQVSAALLSMALKDLGVKAKSLNAFQVKIKTTPHHTSARIVDIDDSVIRENLKDYDVLVVTGFQGVNEHGDLTTLGRGGSDTSAVALAAKLRVPCEIYSDVDGIYTCDPRVHPRAKKLAYITYDEALELTALGAKVLHSRSVEIAKKYGIPIYCASSFTEEEGTMVVERLPEWLEEPVVTGATISHGQIKVSISFLPKDVKYITAIFEEVGKRALNVDMISLVPSNGKVFLSFTILEDHKEDLDEALKEALRDVEGWKSTYEGGFAKLSIVGVGMRTSPGVAARFFEALERAGVTPELVTTSEIKISCLVPEEKAEEALKSVIEEFEL", "soluble on expression in E. coli": "not soluble"}, {"sequence": "MSLEKYGNVNDFLDDDLVKNGNPDVYIVVGENSATPDVTSANKISAKIGTMTYTEKVVEDTSTTGYQIIGESESINLLDGTDKLDSAGTKKSWILVIGADDSYSDYFDDDEGNSFSYSEFSEADKTRSLGELGYLLKLYDIDPKNHFESDDDASELVFVRITDSDKNANSQTYNIEKDMVYVSIVYPNQISAFKLAKELEEGYEIPFLGDKYRIVKIDEDDDIIYLGTASYEGTIAHNEYISSGEYQVVLGEILENEDEYRVEISVLRNGNMIEEHTETEGHHHHHH", "soluble on expression in E. coli": "soluble"}]}]}
